Assay results reported in patent US20130064763A1 (NATIONAL RESEARCH COUNCIL OF CANADA, published 2013).
Values belong to the binder of their own block, whether it stands above or below them.

Tests used:
recombinant human ICAM-1 = molecular target: T1, recombinant human ICAM-1 (human, UniProt P05362 28-480); experiment: SPR (Biacore 3000), ICAM-1 captured on SA chip, monomeric VHH injected, 25 C
T1 construct: Bought recombinant protein; In SPR it was captured on an SA sensor chip; also called intercellular adhesion molecule 1; CD54
Description: Three clones (5-5, 11-4, and 34-1) obtained in Example 4 were individually passed through size exclusion columns, Superdex 75 (GE Healthcare) in 10 mM HEPES, pH 7.4, containing 150 mM NaCl, 3 mM EDTA; monomeric sdAb fractions were collected and protein concentrations were determined by measuring A₂₈₀. SPR analyses were performed with Biacore 3000 instrument (GE Healthcare). All measurements were carried out at 25° C. in 10 mM HEPES, pH 7.4, containing 150 mM NaCl, 3 mM EDTA and 0.005% surfactant P20 (GE Healthcare). Approximately 700-900 RUs of the recombinant ICAM-1 was captured on SA sensor chip (GE Healthcare) at a flow rate of 5 μl/min. Various concentration of the monomeric VHH were injected over the ICAM-1 surface, using a SA surface as a reference, at a flow rate of 40 μl/min. Surfaces were generated by washing with running buffer. Data were analysed with BIAevaluation 4.1 software.

[1] = molecular target: T2, rat ICAM-1 on LPS-induced rat brain endothelial cells (SV-RBEC) (rat, UniProt Q00238 28-545); experiment: immunofluorescence with Cy5.5-labelled sdAb on fixed SV-RBEC cells with or without LPS
T2 construct: whole, on cells; Endogenous protein on fixed cells
T2 sequence (looked up): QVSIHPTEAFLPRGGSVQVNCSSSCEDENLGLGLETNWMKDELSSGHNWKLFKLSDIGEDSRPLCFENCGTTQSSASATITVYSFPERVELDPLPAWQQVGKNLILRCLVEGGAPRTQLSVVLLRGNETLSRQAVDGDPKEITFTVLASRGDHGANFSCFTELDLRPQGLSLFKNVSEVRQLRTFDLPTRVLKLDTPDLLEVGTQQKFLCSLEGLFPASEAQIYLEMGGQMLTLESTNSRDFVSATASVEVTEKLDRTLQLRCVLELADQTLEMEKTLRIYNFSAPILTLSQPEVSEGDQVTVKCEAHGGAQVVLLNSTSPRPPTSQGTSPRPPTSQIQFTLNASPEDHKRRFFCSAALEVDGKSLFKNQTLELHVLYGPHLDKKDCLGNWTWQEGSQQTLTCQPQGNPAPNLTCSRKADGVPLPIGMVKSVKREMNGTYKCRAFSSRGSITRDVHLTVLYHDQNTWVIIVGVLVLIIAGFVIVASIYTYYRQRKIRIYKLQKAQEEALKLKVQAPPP
Description: Rat brain endothelial cells (SV-RBEC) were cultured on coverslips for 3 days in DMEM and 10% FBS. ICAM-1 expression was induced by adding 5 μg (1 mg/ml) of lipopolysaccharide (LPS; Sigma) overnight. Cells were then washed 3× with cold PBS, fixed with 3.7% formaldehyde for 20 min, washed again 3× in PBS at RT, and then blocked with 5% of normal goat serum/PBS for 1 h at RT. 25 μg anti-ICAM-1 IgG or 50 μg anti-ICAM-1 single domain antibodies (34-1, 11-4, 5-5) labelled with Cy5.5 (red) were incubated for 1 h at RT then washed 3× in PBS. The washed cells were incubated in 1:500 WGA-FITC/PBS for 1 min on ice, for membrane staining (green) then washed again 3× with PBS. Coverslips were then mounted in DAKO mounting medium containing 2 μg/ml of Hoechst for nuclear staining (blue).

[2] = molecular target: T3, mouse ICAM-1 in vivo (vasculature and atherosclerotic plaques of ApoE KO mice) (mouse, UniProt P13597 28-537); experiment: in vivo near-infrared optical imaging of ApoE KO and control mice after injection of Cy5.5-labelled sdAb
T3 construct: whole, on cells; Endogenous protein in the living animal; also called ICAM-1 receptor
Description: Anti-ICAM-1 antibodies were labelled with Cy5.5 succimidyl ester using methods recommended by the manufacturer (GE Healthcare). […] The presence of plaques in the aorta of atherosclerotic mice (Example 6) was visualized monthly via tail vein injection of 50 μg of anti-ICAM-1 sdAb using non-invasive in vivo optical imaging. In vivo imaging studies were performed using a small-animal time-domain eXplore Optix MX2 pre-clinical imager (Advanced Research Technologies, Montreal, QC) at 4, 24, 48, and 72 h after injection. For imaging, mice were first anesthetized with isofluorane, and then positioned on an animal stage in a chamber that allows for maintenance of gaseous anesthesia. A pre-injection scan was routinely performed to determine baseline fluorescence level. At the end of the study, animals were euthanized and perfused, organs were removed and imaged. […] The fluorescence emission at 700 nm was collected by a highly sensitive time-correlated single photon counting system and detected through a fast photomultiplier tube. The data were recorded as temporal point-spread functions (TPSF) and the images were reconstructed as fluorescence concentration maps using ART Optix Optiview analysis software 2.0 (Advanced Research Technologies, Montreal, QC).

T1 sequence (P05362 28-480 limits assumed): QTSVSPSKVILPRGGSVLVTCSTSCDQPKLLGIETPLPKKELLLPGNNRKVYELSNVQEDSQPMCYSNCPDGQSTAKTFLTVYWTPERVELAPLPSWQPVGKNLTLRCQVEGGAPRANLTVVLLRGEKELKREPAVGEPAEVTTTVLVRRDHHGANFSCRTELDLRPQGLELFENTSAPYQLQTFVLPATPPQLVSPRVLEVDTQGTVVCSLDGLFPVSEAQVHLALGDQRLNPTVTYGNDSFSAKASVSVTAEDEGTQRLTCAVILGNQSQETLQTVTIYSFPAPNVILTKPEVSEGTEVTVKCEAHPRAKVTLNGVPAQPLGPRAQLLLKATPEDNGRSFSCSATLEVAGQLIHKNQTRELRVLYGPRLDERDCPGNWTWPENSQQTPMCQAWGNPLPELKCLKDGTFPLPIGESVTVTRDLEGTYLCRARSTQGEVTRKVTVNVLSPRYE
T3 sequence (P13597 28-537): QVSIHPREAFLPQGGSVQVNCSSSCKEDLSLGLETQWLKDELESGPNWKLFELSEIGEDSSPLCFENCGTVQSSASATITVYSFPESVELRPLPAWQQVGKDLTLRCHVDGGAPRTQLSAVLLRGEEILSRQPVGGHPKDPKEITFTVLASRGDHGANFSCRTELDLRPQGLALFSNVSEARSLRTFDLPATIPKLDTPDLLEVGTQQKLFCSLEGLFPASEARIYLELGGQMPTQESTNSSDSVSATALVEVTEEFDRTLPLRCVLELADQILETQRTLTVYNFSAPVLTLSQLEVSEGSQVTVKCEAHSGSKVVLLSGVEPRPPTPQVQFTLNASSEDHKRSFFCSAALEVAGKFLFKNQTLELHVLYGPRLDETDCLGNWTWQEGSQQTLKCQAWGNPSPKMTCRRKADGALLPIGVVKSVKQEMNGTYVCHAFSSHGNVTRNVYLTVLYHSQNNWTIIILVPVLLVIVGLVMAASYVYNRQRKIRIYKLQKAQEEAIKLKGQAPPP

Kd (recombinant human ICAM-1): 60 nM | koff (recombinant human ICAM-1): 0.004 s⁻¹ | kon (recombinant human ICAM-1): 70000 M⁻¹ s⁻¹
B1: anti-ICAM sdAb clone 5-5 (VHH)
VHH: QVKLEESGGGLVQAGDSLRLSCAASGRTVNAFRMGWYRQAPGKQRERVAVITAGGTTSYIDSVKGRFTISRDNAKNTVYLQMNSLKPEDTAVYYCAAIDYDSRGQGTQVTVSS
notes: Soluble His6-tagged VHH expressed in E. coli from pSJF2, purified by IMAC, monomeric by SEC; also called llama sdAb clone 5-5

binding result [1]: binds
B2: anti-ICAM-1 sdAb clone 5-5 labelled with Cy5.5 (VHH)
VHH: B1 VHH
modifications: labelled with Cy5.5 succimidyl ester, dye/antibody ratio of two; labelled residues not stated
notes: Cy5.5 conjugate of m2

binding result [1]: binds | binding result [2]: binds
B3: anti-ICAM-1 sdAb clone 11-4 labelled with Cy5.5 (VHH)
VHH: QVQLVESGGGLVQPGGSLRLSCAASGSISSLYVMGWYRQAPGKQRELVADITSSGSIYYVDSLKGRFTISRDNARSTVYLQMNSLEPEDTAVYYCMAHVRQDSGSEYLTYWGQGTQVTVSS
modifications: labelled with Cy5.5 succimidyl ester, dye/antibody ratio of two; labelled residues not stated
notes: also called anti-ICAM-1 sdAb 11-4-Cy5.5; anti-ICAM-1 11-4 sdAb-Cy5.5

Kd (recombinant human ICAM-1): 0.9 nM | koff (recombinant human ICAM-1): 0.002 s⁻¹ | kon (recombinant human ICAM-1): 2e+06 M⁻¹ s⁻¹
B4: anti-ICAM sdAb clone 11-4 (VHH)
VHH: B3 VHH
notes: Soluble His6-tagged VHH expressed in E. coli from pSJF2, purified by IMAC, monomeric by SEC; also called llama sdAb clone 11-4; anti-ICAM-1 sdAb 11-4

binding result [1]: binds
B5: anti-ICAM-1 sdAb clone 34-1 labelled with Cy5.5 (VHH)
VHH: QVKLEESGGGLVQPGGSLRLSCAASGSIFSINDMGWYRQAPGKQRELVARITRDGSAAYEDSVKGRFTISRDNAPNTVFLQMNGLKPEDTAVYYCNAEIITTQTLGRMLGEYWGQGTQVTVSS
modifications: labelled with Cy5.5 succimidyl ester, dye/antibody ratio of two; labelled residues not stated
notes: Cy5.5 conjugate of m3

Kd (recombinant human ICAM-1): 10 nM | koff (recombinant human ICAM-1): 0.002 s⁻¹ | kon (recombinant human ICAM-1): 100000 M⁻¹ s⁻¹
B6: anti-ICAM sdAb clone 34-1 (VHH)
VHH: B5 VHH
notes: Soluble His6-tagged VHH expressed in E. coli from pSJF2, purified by IMAC, monomeric by SEC; also called llama sdAb clone 34-1
